Assay results reported in patent US20260042865A1 (Amgen, published 2026).
Each block holds one binder with its values, some of them ahead of it.

Assays:
[1] = molecular target: T1, Mouse ASGR1 protein (R&D Systems cat #2755-AS/CF) (mouse, UniProt P34927 61-284, limits assumed); assay: SPR (BIAcore 3000), mouse ASGR1 immobilized, pH 7.4 with 2 mM Ca2+
T1 construct: Bought protein; also called muASGR1
T1 sequence (looked up): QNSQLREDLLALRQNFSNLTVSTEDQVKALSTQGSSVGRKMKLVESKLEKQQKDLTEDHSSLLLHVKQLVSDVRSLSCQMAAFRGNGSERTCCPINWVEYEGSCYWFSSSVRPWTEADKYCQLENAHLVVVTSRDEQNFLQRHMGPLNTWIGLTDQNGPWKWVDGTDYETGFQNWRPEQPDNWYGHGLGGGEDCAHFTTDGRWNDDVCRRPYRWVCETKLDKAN
Description: (§1) The binding of anti-ASGR1 antibodies binding ASGR1 in a pH/Ca2+ dependent or independent manner was assessed by BIAcore. Equilibrium binding affinities of the interaction between (i) mouse or human ASGR1 and anti-ASGR1 antibodies; and (ii) mouse or human ASGR1 and bispecific scFv molecules of the present inventions were determined using BIAcore 3000. Mouse and human ASGR1 proteins were obtained from R&D-systems (cat #2755-AS/CF and 4394-AS/CF, respectively) and immobilized on CM5 chips using amine coupling chemistry to a density of ˜1500 RU. On each CM5 chip a reference flow cell is used which was coupled with coupling buffer only. Antibodies were injected over immobilized ASGR1 at a concentration range of 1000 nM-0.2 nM, with a two-fold serial dilution. To determine pH/Ca-sensitive binding, runs were performed using phosphate buffered saline (PBS) with 0.01% (v/v) Tween20 and 0.05% azide with either pH 7.4/2 mM calcium chloride or pH 6.0/2 μM calcium chloride. The chip was regenerated using 0.15 M NaCl, 0.1 M glycine pH 1.5 buffer between each injection cycles. Equilibrium dissociation constants were determined using 1:1 interaction model using BIAevaluation.

[2] = molecular target: T2, Human ASGR1 protein (R&D Systems cat #4394-AS/CF) (human, UniProt P07306 62-291); assay: SPR (BIAcore 3000), human ASGR1 immobilized, pH 7.4 with 2 mM Ca2+
T2 construct: Bought protein; also called huASGR1
T2 sequence (looked up): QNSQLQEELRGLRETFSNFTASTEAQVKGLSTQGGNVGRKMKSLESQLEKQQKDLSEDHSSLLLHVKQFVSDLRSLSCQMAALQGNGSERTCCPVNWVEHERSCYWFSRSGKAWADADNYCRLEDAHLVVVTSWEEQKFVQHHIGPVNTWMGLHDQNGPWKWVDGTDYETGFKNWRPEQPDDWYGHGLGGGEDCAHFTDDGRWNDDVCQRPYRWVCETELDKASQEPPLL
Description: as §1

[3] = molecular target: T1, Mouse ASGR1 protein (R&D Systems cat …); assay: SPR (BIAcore 3000), mouse ASGR1 immobilized, pH 7.4 with 2 mM Ca2+; pH 7.4 with 2 mM Ca2+; Table 3 experiment (comparison with bispecific scFv)
Description: as §1

[4] = molecular target: T1, Mouse ASGR1 protein (R&D Systems cat …); assay: SPR (BIAcore 3000), mouse ASGR1 immobilized, antibody analyte, pH 7.4, 2 mM CaCl2; pH 7.4, 2 mM CaCl2; Table 1 experiment
[5] = molecular target: T1, Mouse ASGR1 protein (R&D Systems cat …); assay: SPR (BIAcore 3000), mouse ASGR1 immobilized, antibody analyte, pH 6, 2 uM CaCl2
Description: (§2) Antibodies binding to ASGR1 in a pH/Ca2+-dependent manner were screened by employing surface plasmon resonance. Antibodies were screened either at pH 7.4 with 2 mM CaCl2 or at pH 6.0 with 2 μM CaCl2 to analyze the binding to ASGR1. KD values were determined by immobilizing receptor on the chip and antibodies as analytes.
(§3) Equilibrium binding affinities of the interaction between mouse ASGR1 and anti-ASGR1 antibodies were determined using BIAcore 3000. Mouse ASGR1 protein was obtained from R&D-systems (cat #2755-AS/CF) and immobilized on CM5 chips using amine coupling chemistry to a density of ˜1500 RU. On each CM5 chip a reference flow cell is used which was coupled with coupling buffer only. Antibodies were injected over immobilized ASGR1 at a concentration range of 1000 nM-0.2 nM, with a two-fold serial dilution. To determine pH/Ca-sensitive binding, runs were performed using phosphate buffered saline (PBS) with 0.01% (v/v) Tween20 and 0.05% azide with either pH 7.4/2 mM calcium chloride or pH 6.0/2 μM calcium chloride. The chip was regenerated using 0.15 M NaCl, 0.1 M glycine pH 1.5 buffer between each injection cycles. Equilibrium dissociation constants were determined using 1:1 interaction model using BIAevaluation.

[6] = molecular target: T1, Mouse ASGR1 protein (R&D Systems cat …); assay: SPR (BIAcore 3000), mouse ASGR1 immobilized, antibody analyte, pH 7.4, 2 mM CaCl2
Description: as §2, §3

Kd [1]: 78.3 nM | Kd [2]: 23 nM
B1: Catabolic bispecific scFv molecule (binds ASGR1 in a catabolic manner and Ig in a non-catabolic manner) (bispecific antibody)
scFv: ELQLQQSGAELVRPGASVKLSCTTSGFNVKDTYIHWVRQRPEQGLEWIGRIDPANGNTKYDPKFQDRATITTDTSSITAYLQLSSLTSEDTAVYYCARNYGSNYDPMDYWGQGTSLTVSSGGGGSGGGGSGGGGSDILLTQSPAILSVSPGERVSFSCRASQNIDTNIHWYQRRTNDSPRLLIKYASESISGIPSRFSGSGSGTDFTLSINSVESEDIADYYCQQSDTWPWTFGGGTKLEIKRSGGGGSQVQLVESGGGVVQPGRSLRLSCAASGFTFSSYGMHWVRQAPGKGLEWVAVIWYDGSNKYYADSVKGRFTISRDNSKNTLYLQMNSLRAEDTAVYYCARDSSPYGMDVWGQGTTVTVSSGGGGSGGGGSGGGGSDIQMTQSPSSVSASVGDRVTITCRASQGISSWLAWYQQKPGKAPKLLIYGASSLQSGVPSRFSASGSGTDFTLTISSLQPEDFATYYCQQSDSFPRTFGQGTKVEIKRHHHHHH
notes: Single chain: anti-IgG scFv, SG4S linker, catabolic anti-ASGR1 scFv, C-terminal 6xHis; also called CAT bispecific scFv molecule; CAT-bispecific scFv molecule

Kd [3]: 12.1 nM | Kd [4]: 20 nM | Kd [2]: 4 nM
B2: Catabolic anti-ASGR1 antibody (antibody, human IgG1, kappa, N297G, V domains shown)
VH: QVQLVESGGGVVQPGRSLRLSCAASGFTFSSYGMHWVRQAPGKGLEWVAVIWYDGSNKYYADSVKGRFTISRDNSKNTLYLQMNSLRAEDTAVYYCARDSSPYGMDVWGQGTTVTVSS
VL: DIQMTQSPSSVSASVGDRVTITCRASQGISSWLAWYQQKPGKAPKLLIYGASSLQSGVPSRFSASGSGTDFTLTISSLQPEDFATYYCQQSDSFPRTFGQGTKVEIKR
notes: also called CAT-WT; CAT mAb

Kd [5]: 5.5 nM | Kd [6]: 6 nM
B3: Non-catabolic anti-ASGR1 antibody (antibody, human IgG1, kappa, N297G, V domains shown)
VH: EVQLVESGGGLVQPGRSLKLSCAASGFTFSDYNMAWVRQAPKKGLEWVATIIYDGGSTYYRHSVKGRFTISRDNAKSTHSLQMDSLRSEDTATYYCARQTYFGSRDYFDYWGQGVMVTVSS
VL: DIQMTQSPTSLSASLGETVSIECLTSEDIYNNLAWYQQKPGKSPQLLISYASNFQDGVPSRFSGSGSGTQYSLKINSLESEDAATYFCLQDSEYPPTFGGGTKLELKR
notes: also called Non-CAT-WT; non-CAT mAb
